Positions count from the first letter of the chain named.
B1: Conjugate 1: 2900-A02 Y180/F404-LP1 (antibody, human IgG1, kappa)
heavy: MEVQLVESGGGLVQPGGSLRLSCAASGFTISGYIIHWVRQAPGKGLEWVGYIDPSNGYTYYADSVKGRFTISADTSKNTAYLQMNSLRAEDTAVYYCARDDQSLSSPFDYWGQGTLVTVSSASTKGPSVFPLAPSSKSTSGGTAALGCLVKDYFPEPVTVSWNSGALTSGVHTFPAVLQSSGLSLSSVVTVPSSSLGTQTYICNVNHKPSNTKVDKKVEPKSCDKTHTCPPCPAPELLGGPSVFLFPPKPKDTLMISRTPEVTCVVVDVSHEDPEVKFNWYVDGVEVHNAKTKPREEQYNSTYRVVSVLTVLHQDWLNGKEYKCKVSNKALPAPIEKTISKAKGQPREPQVYTLPPSREEMTKNQVSLTCLVKGFYPSDIAVEWESNGQPENNYKTTPPVLDSDGSFLYSKLTVDKSRWQQGNVFSCSVMHEALHNHYTQKSLSLSPGK
light: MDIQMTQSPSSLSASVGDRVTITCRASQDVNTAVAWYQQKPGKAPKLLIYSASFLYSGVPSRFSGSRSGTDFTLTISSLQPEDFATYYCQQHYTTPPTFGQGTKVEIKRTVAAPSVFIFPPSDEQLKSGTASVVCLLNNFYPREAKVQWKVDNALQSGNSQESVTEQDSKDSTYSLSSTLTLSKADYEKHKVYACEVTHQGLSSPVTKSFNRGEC
modifications: pAMF at Y180 and F404 (EU), each linked to LP1 (DBCO-Valcit-pAB-hemiasterlin)
B2: Conjugate 3: 2900-A02 Y180/F404/k42-LP1 (antibody, human IgG1, kappa)
heavy: B1 heavy
light: MDIQMTQSPSSLSASVGDRVTITCRASQDVNTAVAWYQQKPGAPKLLIYSASFLYSGVPSRFSGSRSGTDFTLTISSLQPEDFATYYCQQHYTTPPTFGQGTKVEIKRTVAAPSVFIFPPSDEQLKSGTASVVCLLNNFYPREAKVQWKVDNALQSGNSQESVTEQDSKDSTYSLSSTLTLSKADYEKHKVYACEVTHQGLSSPVTKSFNRGEC
modifications: pAMF at K42 linked to LP1; pAMF at Y180 and F404 (EU), each linked to LP1 (DBCO-Valcit-pAB-hemiasterlin)
B3: Conjugate 5: 2900-A02 Y180/F404/k42/E161-LP1 (antibody, human IgG1, kappa)
heavy: B1 heavy
light: MDIQMTQSPSSLSASVGDRVTITCRASQDVNTAVAWYQQKPGAPKLLIYSASFLYSGVPSRFSGSRSGTDFTLTISSLQPEDFATYYCQQHYTTPPTFGQGTKVEIKRTVAAPSVFIFPPSDEQLKSGTASVVCLLNNFYPREAKVQWKVDNALQSGNSQSVTEQDSKDSTYSLSSTLTLSKADYEKHKVYACEVTHQGLSSPVTKSFNRGEC
modifications: pAMF at K42 and E161, each linked to LP1; pAMF at Y180 and F404 (EU), each linked to LP1 (DBCO-Valcit-pAB-hemiasterlin)
B4: SRP2900-E03 (antibody, IgG1, V domains shown)
VH: EVQLVESGGGLVQPGGSLRLSCAASGFTISDYWIHWVRQAPGKGLEWVGYIDPQNGWTYYADSVKGRFTISADTSKNTAYLQMNSLRAEDTAVYYCARDYGSLEVSLDYWGQGTLVTVSS
VL: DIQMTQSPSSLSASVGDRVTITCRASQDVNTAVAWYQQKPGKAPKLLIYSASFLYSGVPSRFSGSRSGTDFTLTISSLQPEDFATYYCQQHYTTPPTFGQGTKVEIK
B5: SRP2900-E04 (antibody, IgG1, V domains shown)
VH: EVQLVESGGGLVQPGGSLRLSCAASGFTIPDYWIHWVRQAPGKGLEWVGYIDPYSGSTFYADSVKGRFTISADTSKNTAYLQMNSLRAEDTAVYYCARADYYYVDEYLDYWGQGTLVTVSS
VL: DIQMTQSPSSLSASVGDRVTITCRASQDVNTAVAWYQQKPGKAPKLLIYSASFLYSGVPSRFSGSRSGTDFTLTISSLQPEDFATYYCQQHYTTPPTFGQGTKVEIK
B6: SRP2900-E05 (antibody, IgG1, V domains shown)
VH: B4 VH with D31G, Q54A, W57F, L103V, E104R, S106F
VL: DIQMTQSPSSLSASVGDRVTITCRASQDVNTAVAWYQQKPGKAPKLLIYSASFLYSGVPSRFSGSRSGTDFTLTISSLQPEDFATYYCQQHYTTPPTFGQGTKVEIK
B7: SRP2900-E08 (antibody, IgG1, V domains shown)
VH: B4 VH with S30T, Q54Y, W57Y, E104Q, S106F, L107I
VL: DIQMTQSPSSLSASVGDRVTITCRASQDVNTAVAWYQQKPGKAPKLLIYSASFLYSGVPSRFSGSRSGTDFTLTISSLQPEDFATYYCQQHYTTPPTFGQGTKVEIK
B8: SRP2900-E09 (antibody, IgG1, V domains shown)
VH: B4 VH with D31Q, Q54Y, W57Y, Y80H, L103F, E104R, S106Q
VL: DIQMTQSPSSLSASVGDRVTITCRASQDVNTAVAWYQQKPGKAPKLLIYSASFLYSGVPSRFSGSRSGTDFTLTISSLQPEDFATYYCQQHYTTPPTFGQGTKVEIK
B9: SRP2900-E10 (antibody, IgG1, V domains shown)
VH: B4 VH with Q54A, W57Y, E104H, S106Q
VL: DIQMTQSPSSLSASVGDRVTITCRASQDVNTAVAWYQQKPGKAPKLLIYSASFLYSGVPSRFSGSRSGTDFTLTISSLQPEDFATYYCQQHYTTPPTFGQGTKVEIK
B10: SRP2900-E11 (antibody, IgG1, V domains shown)
VH: EVQLVESGGGLVQPGGSLRLSCAASGFTISYYIIHWVRQAPGKGLEWVGYIDPSNGYTYYADSVKGRFTISADTSKNTAYLQMNSLRAEDTAVYYCARDVQSVSGEFDYWGQGTLVTVSS
VL: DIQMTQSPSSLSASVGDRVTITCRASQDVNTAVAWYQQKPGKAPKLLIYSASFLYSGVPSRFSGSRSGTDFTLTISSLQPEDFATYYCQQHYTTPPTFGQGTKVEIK
B11: SRP2900-F04 (antibody, IgG1, V domains shown)
VH: B4 VH with Q54Y, W57F, E104Q, S106F, L107I
VL: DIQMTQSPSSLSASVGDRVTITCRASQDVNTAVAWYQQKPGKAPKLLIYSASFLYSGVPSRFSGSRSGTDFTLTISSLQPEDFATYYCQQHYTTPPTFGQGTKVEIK
B12: SRP2900-F05 (antibody, IgG1, V domains shown)
VH: B10 VH with S30N, Y31D, I33V, V100D, V103L, G105S, E106P
VL: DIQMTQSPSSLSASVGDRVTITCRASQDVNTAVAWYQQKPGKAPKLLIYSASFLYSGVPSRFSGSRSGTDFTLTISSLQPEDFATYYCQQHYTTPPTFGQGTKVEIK
B13: SRP2900-F07 (antibody, IgG1, V domains shown)
VH: B10 VH with Y31D, I33T, Y60H, V100P, G105S, E106P
VL: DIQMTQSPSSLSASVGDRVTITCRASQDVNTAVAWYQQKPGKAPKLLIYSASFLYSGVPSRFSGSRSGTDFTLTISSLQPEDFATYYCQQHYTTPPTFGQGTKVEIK
B14: SRP2900-A03 (antibody, IgG1, V domains shown)
VH: B5 VH with D31S, Y54A, S55N, S57A, F59Y, Y102F
VL: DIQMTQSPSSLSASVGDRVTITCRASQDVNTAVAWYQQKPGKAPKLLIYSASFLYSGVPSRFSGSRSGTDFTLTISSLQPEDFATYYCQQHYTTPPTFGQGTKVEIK
B15: SRP2900-F10 (antibody, IgG1, V domains shown)
VH: B10 VH with Y31D, I33V, V100P, V103L, S104F, G105Y, E106P
VL: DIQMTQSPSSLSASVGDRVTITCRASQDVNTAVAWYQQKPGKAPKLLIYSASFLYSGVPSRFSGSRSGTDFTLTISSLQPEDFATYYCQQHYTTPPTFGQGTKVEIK
B16: SRP2900-G01 (antibody, IgG1, V domains shown)
VH: B10 VH with S30F, Y31D, I33T, Y59F, M83V, V100I
VL: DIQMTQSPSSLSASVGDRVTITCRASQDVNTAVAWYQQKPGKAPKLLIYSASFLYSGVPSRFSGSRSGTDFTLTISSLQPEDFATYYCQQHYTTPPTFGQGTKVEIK
B17: SRP2900-G04 (antibody, IgG1, V domains shown)
VH: B10 VH with I29T, S30R, Y31D, I33V, V100P, V103L, G105S, E106P
VL: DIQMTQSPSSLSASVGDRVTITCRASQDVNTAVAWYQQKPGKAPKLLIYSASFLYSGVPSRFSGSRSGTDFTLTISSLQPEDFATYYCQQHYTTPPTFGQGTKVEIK
B18: SRP2900-G06 (antibody, IgG1, V domains shown)
VH: B10 VH with Y31D, V100D, V103L, G105S, E106P
VL: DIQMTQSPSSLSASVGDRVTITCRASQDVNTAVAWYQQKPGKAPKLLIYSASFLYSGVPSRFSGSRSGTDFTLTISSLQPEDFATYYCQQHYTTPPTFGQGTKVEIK
B19: SRP2900-G07 (antibody, IgG1, V domains shown)
VH: B10 VH with Y31D, I33V, V100P, V103L, S104T, G105S, E106P
VL: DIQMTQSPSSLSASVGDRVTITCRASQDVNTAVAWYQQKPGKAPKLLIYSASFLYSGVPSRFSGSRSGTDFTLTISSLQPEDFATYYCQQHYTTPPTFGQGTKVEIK
B20: SRP2900-G08 (antibody, IgG1, V domains shown)
VH: B10 VH with P14L, S30G, Y31G, V100I
VL: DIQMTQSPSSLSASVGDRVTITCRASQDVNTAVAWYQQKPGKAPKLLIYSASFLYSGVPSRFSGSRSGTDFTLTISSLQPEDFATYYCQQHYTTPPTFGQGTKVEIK
B21: SRP2900-A04 (antibody, IgG1, V domains shown)
VH: B5 VH with P30S, D31G, S55N, S57A, F59Y, T78A, Y102F, V104I, L108W
VL: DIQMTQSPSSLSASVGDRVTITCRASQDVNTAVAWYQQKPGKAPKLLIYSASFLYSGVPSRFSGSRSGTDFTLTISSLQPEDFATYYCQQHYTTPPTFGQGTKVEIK
B22: SRP2900-G09 (antibody, IgG1, V domains shown)
VH: B10 VH with Y31D, V100P, V103L, S104T, G105S, E106P
VL: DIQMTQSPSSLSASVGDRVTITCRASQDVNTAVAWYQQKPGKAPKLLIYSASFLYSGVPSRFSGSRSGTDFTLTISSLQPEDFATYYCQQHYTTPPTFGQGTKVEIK
B23: SRP2900-G10 (antibody, IgG1, V domains shown)
VH: B10 VH with S30P, Y31D, V100I
VL: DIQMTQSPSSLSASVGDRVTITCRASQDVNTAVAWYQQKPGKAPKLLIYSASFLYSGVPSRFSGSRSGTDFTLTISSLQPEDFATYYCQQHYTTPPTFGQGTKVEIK
B24: SRP2900-G11 (antibody, IgG1, V domains shown)
VH: B10 VH with L18S, S30Y, Y31D, Y59D, V100I
VL: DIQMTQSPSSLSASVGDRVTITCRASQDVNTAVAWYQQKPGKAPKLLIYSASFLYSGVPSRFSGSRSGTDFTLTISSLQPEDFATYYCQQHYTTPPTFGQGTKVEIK
B25: SRP2900-H01 (antibody, IgG1, V domains shown)
VH: B10 VH with S30F, Y31D, V100P, S104G, G105S
VL: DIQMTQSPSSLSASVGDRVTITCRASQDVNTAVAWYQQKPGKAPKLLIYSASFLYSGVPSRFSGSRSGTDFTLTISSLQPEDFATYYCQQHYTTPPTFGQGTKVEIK
B26: SRP2900-H02 (antibody, IgG1, V domains shown)
VH: B10 VH with S30F, Y31D, V100I
VL: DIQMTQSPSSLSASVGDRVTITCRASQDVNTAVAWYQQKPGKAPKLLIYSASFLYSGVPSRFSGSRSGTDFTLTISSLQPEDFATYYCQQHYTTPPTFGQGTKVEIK
B27: SRP2900-H03 (antibody, IgG1, V domains shown)
VH: B10 VH with S30Y, Y31D, Y60H, V100P, V103L, G105S, E106P
VL: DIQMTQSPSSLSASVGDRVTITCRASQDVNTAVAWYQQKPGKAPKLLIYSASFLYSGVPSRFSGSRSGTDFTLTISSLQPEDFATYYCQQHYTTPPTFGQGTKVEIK
B28: SRP2900-H04 (antibody, IgG1, V domains shown)
VH: B10 VH with Y31H, V100I
VL: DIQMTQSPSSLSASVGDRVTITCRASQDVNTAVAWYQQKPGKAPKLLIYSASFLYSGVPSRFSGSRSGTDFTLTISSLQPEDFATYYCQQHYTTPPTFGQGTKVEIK
B29: SRP2900-H05 (antibody, IgG1, V domains shown)
VH: B10 VH with Y31D, I33T, V100I
VL: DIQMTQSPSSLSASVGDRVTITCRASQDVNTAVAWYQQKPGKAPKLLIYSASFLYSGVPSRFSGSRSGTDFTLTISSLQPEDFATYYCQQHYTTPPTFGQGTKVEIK
B30: SRP2900-A06 (antibody, IgG1, V domains shown)
VH: B5 VH with P30S, D31S, Y54F, S55N, S57A, F59Y, L108W
VL: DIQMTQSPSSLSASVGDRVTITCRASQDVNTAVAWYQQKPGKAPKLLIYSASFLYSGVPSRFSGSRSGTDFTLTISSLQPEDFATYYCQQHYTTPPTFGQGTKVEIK
B31: SRP2900-H08 (antibody, IgG1, V domains shown)
VH: B10 VH with Y31D, I33V, Y59F, S75P, E89K, V100P, V103L, G105S, E106P
VL: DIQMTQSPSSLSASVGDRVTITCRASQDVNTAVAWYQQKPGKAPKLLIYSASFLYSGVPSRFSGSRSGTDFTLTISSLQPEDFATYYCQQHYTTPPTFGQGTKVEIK
B32: SRP2900-H10 (antibody, IgG1, V domains shown)
VH: B10 VH with Y31D, I33V, Y57F, M83T, V100I
VL: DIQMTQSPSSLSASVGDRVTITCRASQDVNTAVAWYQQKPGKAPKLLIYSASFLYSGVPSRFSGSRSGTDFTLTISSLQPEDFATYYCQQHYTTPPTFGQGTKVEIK
B33: SRP2900-A07 (antibody, IgG1, V domains shown)
VH: B5 VH with P30S, D31S, S55N, S57A, F59Y, A99S, Y107F, L108F
VL: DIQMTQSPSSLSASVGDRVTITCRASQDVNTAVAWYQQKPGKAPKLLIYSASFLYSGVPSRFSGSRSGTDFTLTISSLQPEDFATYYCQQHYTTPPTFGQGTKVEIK

The binders below were run against human tissue factor on cells (human, UniProt P13726 33-295) (assay: cell-based or functional assay).
human tissue factor on cells, sequence (P13726 33-295 limits assumed): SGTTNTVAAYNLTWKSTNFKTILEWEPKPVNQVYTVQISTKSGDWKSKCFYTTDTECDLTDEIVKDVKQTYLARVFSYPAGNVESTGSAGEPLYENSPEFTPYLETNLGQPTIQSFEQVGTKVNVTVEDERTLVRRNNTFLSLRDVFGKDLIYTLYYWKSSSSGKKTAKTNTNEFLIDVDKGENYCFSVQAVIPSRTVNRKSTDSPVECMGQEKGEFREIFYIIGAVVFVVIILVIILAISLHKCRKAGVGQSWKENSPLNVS

| Binder | cell killing EC50, HCC1954 (TF+++) | cell killing EC50, HCC1954, with 0.5 uM unconjugated mAb 36 | cell killing EC50, NCI-H292 (TF++++) | cell killing EC50, NCI-H1975 (TF++) | cell killing EC50, NCI-H1975, with 0.5 uM unconjugated mAb 36 | cell killing Span, HCC1954 (TF+++) | cell killing Span, NCI-H292 (TF++++) | cell killing Span, NCI-H1975 (TF++) | cell killing EC50, HCC1954, with 0.5 uM unconjugated mAb 39 | cell killing EC50, NCI-H292, with 0.5 uM unconjugated mAb 39 |
| --- | --- | --- | --- | --- | --- | --- | --- | --- | --- | --- |
| B1 | 0.064 nM | > 100 nM | 0.055 nM | ~25 nM | > 100 nM | 95% | 85% | 62% | – | – |
| B2 | 0.073 nM | – | 0.048 nM | ~7 nM | – | 93% | 82% | 68% | > 100 nM | > 100 nM |
| B3 | 0.08 nM | – | 0.045 nM | ~4.4 nM | – | 91% | 87% | 72% | – | – |

Same assay, conditions: not given

| Binder | cell killing EC50, NCI-H1975, with 0.5 uM unconjugated mAb 39 | cell killing EC50, HCC1954, with 0.5 uM unconjugated mAb 38 | cell killing EC50, NCI-H292, with 0.5 uM unconjugated mAb 38 | cell killing EC50, NCI-H1975, with 0.5 uM unconjugated mAb 38 |
| --- | --- | --- | --- | --- |
| B2 | > 100 nM | – | – | – |
| B3 | – | > 100 nM | > 100 nM | > 100 nM |

Each binder was assayed against tissue factor reagent of the Tissue Factor Activity Assay Kit (Abcam #ab108906) (UniProt P13726 33-295, limits assumed) (assay: cell-based or functional assay).
tissue factor reagent of the Tissue Factor Activity Assay Kit (Abcam #ab108906), sequence (P13726 33-295 limits assumed): as above

| Binder | FX conversion (% inhibition), 1000 nM antibody |
| --- | --- |
| B4 | 48.7% |
| B5 | 25.9% |
| B6 | 23.5% |
| B7 | 45.8% |
| B8 | 32.2% |
| B9 | 50.7% |
| B10 | 39.9% |
| B11 | 47.3% |
| B12 | 25.1% |
| B13 | 30.3% |
| B14 | 26.3% |
| B15 | 32.5% |
| B16 | 25.1% |
| B17 | 31.2% |
| B18 | 21.4% |
| B19 | 38.3% |
| B20 | 38.9% |
| B21 | 38.6% |
| B22 | 30.4% |
| B23 | 48.7% |
| B24 | 40.9% |
| B25 | 30.5% |
| B26 | 40.4% |
| B27 | 40.8% |
| B28 | 36.3% |
| B29 | 36.2% |
| B30 | 36.8% |
| B31 | 32.2% |
| B32 | 45.4% |
| B33 | 28.4% |
